Consider two substances from article PMC12309361.

Where two headings read alike, the source gives them in different places.

The Kd is the constant that tells how readily two partners part at equilibrium.

Assay [1] addresses Pol III alpha CBM (Escherichia coli). The conditions noted are these: cited from earlier work.
Assay [2] deals with WT PolC CBM peptide (QLSLF) with flanking amino acids from PolC, fluorescein-labelled (B. subtilis). Description: fluorescence polarisation; direct binding: B. subtilis DnaN in 3-fold serial dilution from 50 μM, 20 nM fluorescein-labelled peptide; 20 mM Tris-HCl pH 7.5, 100 mM NaCl, 5 mM BME, 10% glycerol, 0.1% pluronic acid F-68; fit to a 1:1 binding model. (In fluorescence polarisation assays a small probe gives low polarisation when free and higher when bound to something large.)

Assay [3] has as its target PolC CBM sequence (QLSLF) peptide with the flanking amino acids from DnaE, fluorescein-labelled (B. subtilis). The assay is described as above.
Assay [4] addresses WT PolC CBM peptide (QLSLF) with flanking amino acids from PolC, fluorescein-labelled (B. subtilis). The assay is described as above. The source holds these as a separate data set.

Turning to DnaN clamp (from UniProt P0A988), the Kd in assay [1] was 0.8 µM.
In the case of “B. subtilis DnaN (sliding clamp), N-terminally His6-tagged (from UniProt P05649 1-378) (natural protein)”, the figures for the Kd in assay [2], in assay [3] and in assay [4] were 3.8 µM, 7.2 µM and 3.9 µM, respectively.
